Reference: the DeepSol protein solubility set

Assay: soluble on expression in E. coli; label from the status in PepcDB or PDB records

Soluble on expression in E. coli, soluble:
GMTNHNNSGKKKVAILIEQAVEDTEFIIPCNGLKQAGFEVVVLGSRMNEKYKGKRGRLSTQADGTTTEAIASEFDAVVIPGGMAPDKMRRNPNTVRFVQEAMEQGKLVAAVCHGPQVLIEGDLLRGKQATGFIAISKDMMNAGADYLDEALVVDGNLITSREPGDLAIFTTAILSRLGYGGKDAALPDEKDRNAEWWKLADAWGGSTKGDIVRGLNTALGGERYSLEALEKYTEKESDVEAKALFQEMITNKQRHIEYLETYLTRLGEKPSLSANIANQYAKVKTALTGSDDIYQIRSALGDIQTGIGDIGNLCAMYTDPIATAIFKEIYKDLVKYEQRLVSLYRTRTNATVQPPKPTTGAAVSM
MAHHHHHHMPRKETKKRKRAPSSAKESVSSTDEQGKRGGAFSKFKEFDVSELLQKPQEVPEIQPVVEEQPCSPCDEVVADPPPLTATDTVEATSEEPAAPIPQLIPPEPLKDLPPDEEFVPLPTIQVVPMMNRALEAQSGLLKEPAPPASIQRVTQPGALPPAMPTALMELLSG
MSLMFERSPDDPLPLVYACSGCSNVAQLANDLALRLDRARLAEMSCIAGVGGDVPLLVRRARSGRPILALDGCPLHCVKGCLARHEVVPTLHLTLSEHGLKKRYGEDCEAQDAERLFVELERLLTPGGKRRCEEGHHHHHH
MSKILVFGHQNPDSDAIGSSYAFAYLAREAYGLDTEAVALGEPNEETAFVLDYFGVAAPRVITSAKAEGAEQVILTDHNEFQQSVADIAEVEVYGVVDHHRVANFETASPLYMRLEPVGSASSIVYRMFKEHGVAVPKEIAGLMLSGLISDTLLLKSPTTHPTDKVIAPELAELAGVNLEEYGLAMLKAGTNLASKSAEELIDIDAKTFELNGNNVRVAQVNTVDIAEVLERQAEIEAAIEKAIADNGYSDFVLMITDIINSNSEILAIGSNMDKVEAAFNFVLENNHAFLAGAVSRKKQVVPQLTESFNA
MRIEAAELRILELPLKFRFETSFGVQTKRTILLLRLFGEGLEGLGEGVMERLPLYREETVAGARYLLEEVFLPRVLGRDLPNPEALREALAPFRGNPMAKAVLEMAFFDLWAKALGRPLWQVLGGVRQAVEVGVSLGIQPSVEDTLRVVERHLEEGYRRIKLKIKPGWDYEVLKAVREAFPEATLTADANSAYSLANLAQLKRLDELRLDYIEQPLAYDDLLDHAKLQRELSTPICLDESLTGAEKARKAIELGAGRVFNVKPARLGGHGESLRVHALAESAGIPLWMGGMLEAGVGRAHNLHLATLPGFTKPGDVSSASRYWEEDIVEEALEAKDGLMPVPEGVGIGVHLKLPFVERVTLWQRYMSAS
MTQWKNALSEGQLQQALELLIEAIKASPKDASLRSSFIELLCIDGDFERADEQLMQSIKLFPEYLPGASQLRHLVKAAQARKDFAQGAATAKVLGENEELTKSLVSFNLSMVSQDYEQVSELALQIEELRQEKGFLANDTSFSDVRDIDDRLGGYIELFSTAGNYFLVPIASINTLEIKSATSLLESVWRPVEFDIDGLGEGEGHMPMTYVDSESDAQKLGRETDWKQIADKEVYLGLGLKCWLVGEMALPISDLQNLQVIKELALEHHHHHH
MHYSYLEPGLHAELAAITPDEAVAHLRNHLGNLLLDPAVTAAYINRLGVLTPEETTPSTRAWLTYLLVRYCDLLPLDLAAQRILAQVTGNAAPHLRDLERCAIPDPIERKLERLGAGEDSERNRAMLLALLHEYPYSPAIMERLMTVELALDIPVGGEWLPSVRPPAGLLRPLHERLFIHAMMQGDTERALQHAAACVPDNPSPHLLNHLAELHARLGDTQQALNLYGASLEADPLQHPVRLRMEALAKPPRAHADALHHRIAICLYSFNKAELLERTLSSLAASQTGEAHILVLLNGCTDDSATRVAAVNERLFNGRLEVIDMPINIGAPAARNWLLAKQTVREADFVAFLDDDVDVPAAWLPRLVGNLEEHPGAGVAGTRVRNPGDVPRLQYLYRNISVARPGLIRLSLDTPTLHHDTGFYDFTRSTTSVMGCCHVFTRRALDEVPAFDLRFSPSQMDDIAHDIDLALAGFDVLYTGDVVCVHHQMSGLGRANATDWKRFGNVAGNDVKFYYRFADRLDALGRLNNLGFMPDMPPALEHHHHHH
MAAQATAETPAGELPVIDAVTTHAPEVPPAIDRDYPAKVRVKMETVEKTMKMDDGVEYRYWTFDGDVPGRMIRVREGDTVEVEFSNNPSSTVPHNVDFHAATGQGGGAAATFTAPGRTSTFSFKALQPGLYIYHCAVAPVGMHIANGMYGLILVEPKEGLPKVDKEFYIVQGDFYTKGKKGAQGLQPFDMDKAVAEQPEYVVFNGHVGALTGDNALKAKAGETVRMYVGNGGPNLVSSFHVIGEIFDKVYVEGGKLINENVQSTIVPAGGSAIVEFKVDIPGNYTLVDHSIFRAFNKGALGQLKVEGAENPEIMTQKLSDTAYAVPR
MKRSTTDSDLAGDAHNETNKKMKSTEEEEIGFSNLDENLVYEVLKHVDAKTLAMSSCVSKIWHKTAQDERLWELICTRHWTNIGCGQNQLRSVVLALGGFRRLHSLYLWPLSKPNPRARFGKDELKLTLSLLSIRYYEKMSFTKRPLPESK

Soluble on expression in E. coli, not soluble:
MGSDKIHHHHHHMTNKNYLLYVDNEKYVLRLPGVMTSNLISRHYEMNNSILMSQAEFNVETIYFNADNGIKITKFLEKGINFNHNNIHQYEYLFLISKELYKLHHSDIQFNNEFNVFETFQQYFDLLKDKNGFFCFNKNIPLIYEFFIKISKNNSFYNIKCPCHNDLVPENILLKNNKLFFIDWEYSGMNAPLFDVAAFFLESRIPKEKQKYFLAHYDHHLDFEKSRMEILFHQFTQDVLWFLWTLIKEENNETFENYASIRINRAYELMKDLVKNEVI
MAEYSMKELIEWNEKIEEIARAEGLDYYEQEFEICSYEDMIAYETYVGMPSHYPHWSYGKNYERIKTLYKYNLTGLPYEMVINSDPCIAYLMKDNTLLLQILTMAHVYGHNDFFKNNRLFKLGTRAKDTVDMFKNHADRIREYIQDPGIGYAKVEKILNAAHAIRYQISRNIGVRVLSQEEKKKELLERYNKPKSEYPLLEPKSKEEEAPPDFKKIPVEPEEDMLLFFMNYSKLTDWERDILSIVREETLYFLPQIETKIMNEGWASFWHYNILNKLNLEQGLHFEFLKRHNQVIRPVLGQLNPYYIGFRIFEDLKKRYEDDPKKIFEVREVERDQSFIRRYLTRELCEEMNLFEYAKIGNSYIVTEVSDEEGWKKIRDTIANNVGLAGIPVIKVAEWVQKDNTLVLEHEYDGREIELSYAYETMKHIVDLWDGKVMLGTVIDNKKKIIVCNEQKKVTLTDG
MSPRNDSTRKHRKSRSIKDDQHYPPVSFVGVESVGIIECPGSNHLSLASIPTTEFKIPDELALWVRGRIDNVAPKHPCDRRGQQPLAKKEISMNSSRSNSSFPARSPAIMTLMGGVPEAEKEYNVGKDGLLKVSKMMEGGKRYEVSANDRFTVFQQSAGQTCLFTFKA
MSSQVSTSRGLPSPSKLGTFESPHTWQMSGPTGQAEAGSSDDQDIRLLSVSWNQDFGCFAAGTSNGFRIFNCDPFKETFRRDLKSGGFGIVEMLFRCNILALVGGGSNAHYPPNKVMIWDDHRSHCIGEFAFRSDVRAVKLGKDYIVIVLERKIYVYNFTDLKLLHQIETQSNPKGLCCLSHHSNTSVLACPGVHQGHVRVEHFGLKVTRMISAHDSHISCMALTMDGLLLATASMKGTLIRIFNTMDGTRLQEVRRGLDKADIYSIALSPNVQWLAVSSDKGTVHIFSLRVRVAGEDASNEQRSLEGPRMDHQNSSSSIDPLIQTNTGSNASSSLSFMKGILPKYFSSEWSFAQFHLPEVTRYIVAFGAQNTVMMVGLDGSFYRCSFDQVNGGQMLQKEYFRFIKADLTPLRTSAP
MVEIDFNKENEEDFSDPPGFVDDVTDDVLVPDVLHKKPTIDEFEDNCVFIAGIPVVGADRLGKLQSVLKKVLERLDPAVKLYIPPSPEGGCLGVLLTEWADQRSAQFAVKSLNGYAFDKNHTFTARSFKDMKQLEAPSDHWTTPEKQAYNDVGDLWWWLQNERCRDQFAISHDKLGVPTVGVFTNMKGNDPELAGDADKAERANWTETVFTWSPHGSYLSTIHKQGIILWGGKDYARAHRFAHTNVQYIDFSPWETYLVTYAAPEESNSWGDCEKDSLRIWDVRTGELKKAFSTFELTGRTQLPTWPFFRWSFDEKYFACLKAPEKDKLEREQKINGISIFESEKFELYEGRPVNIENIKQFEWSPTSTVLAYYSECTDAVPAEFGLLQVPSMQRLRSARVHNVADAQMFWQKSGKRLAFYTMRFKKKEYRETGEVKYVGGCQYHVDIFEIDKKDVSLMNLPLSEPFIHFDWDPEGDKFCVLVGNTAKATPQVYKIEANSHAPKLVSKLDAGVHFNEVQFAPKGGWLAVLAKVSAGGNVYFIDTSLSEAKRTNVIEHPLFNKGYWDPTGRYFVTCSTLGGRAGADLGYRIFTFQGRELCRKNLDRLAQFKWRPRPPVKLSEQKQREIKKNLKKTAAKFIKQDDDEKCRASQEVVEKRRKIMAAFDIIRSRNREQLDATRDERISLRNGVDTEAQLDEDEFVDEEITIALSTSKTQAPLTEEEMRD
SLEKSGFIVHQKFDSILQLEDFDSLDRALKESESYYQKLPSNWKTQVRKTSYHKNQMLNSLKILKKILREKNPESRKIQFQNSFLLLETKDEALGRITAYYEVIIEGRFYPEGDFIYPVLETPSDLIVKKDGNKKSVGKIINEVFVPYETREELSHTSVWKKRSKAIVYVKIVDLHLAQLEGSAFVKVPDHIPFRITYSEDNGKEYQSPAESLKGICSSLIPSDLKSCILKYPKEVEMAILKNPRYIFFKLESSAPRGSGGIELIPKRSVAMDPGIPLGIPVLISFESSVLTEKNRIVFVHDRGSQITGHGRLDYFLGTGETAEYQAGKINTQGKIFLILPKIKN
MGSSHHHHHHGGTGENLYFQGGSGPAREKAIVLIDGPALVHRWYHRWSYTTERYGTSLDVKQFAIKNARFMIATAHSFDPAHMAQHLLSPQTEYAHTPKHNRIIVCFDHGDGGRRQIYADYKANRLQKAVTSEFRLIERVAKKVFADEPRESLLVVPDCDAGLANLNAEADDMIATLAFFNQQNTRPTVVMSHDYDLYQLVDEAKKSYHYDIRTKHLVSERGVMERVGVPPKLVRDFKSLAGDSSDNIPGVNGIGKVRARNLLKKYGDLDGILFKGIKKETGHLGELLNEGAKMALISRQLVDFRMCPKVIKVCESFMRI
MIAGYIMAAENQTLNQWTINQLGITRGDSILEVGFGPGYCMQQMLKREKDVHLHGIDVSEAMLKLAARRVKPKGVRLIQGSIETFPLPASFYDKVISVNNYTIWNDQTKGIKQIYRALKPGGKAAITMQPREADASPEKTKSFGRQMIADFKAAGFEDIDIQFKNIKPELSVCATAKKPATLEHHHHHH
MAHHHHHHMSTSNEEDKWSAISAKKIAPKYRKGYYPNRDIMTPKKKTEKKELTYKNSKIAIGRTKSLRFRRDTVTFATKNINFQHRKKSILSKQKSMAEPKLKKQNTVALKRRKTMSRLNSMKKPPYTIVLNKKKVINMNKGMHPSENRKDKISGTTNTPLAARRMLARSKTKVLVDNETKIFKKENVKMVSSNPFNPIASSVESSRRNELENGKQKKELGTVGSANKRESAQHLSTNADKKKIYHNSVRNKLKSKKEEMFQNIISLTKNMKEKPLKKKYNDQIDPRDLLSVTSNNSSVAVDDDL
MVMATRVKNVGNWRIMPDATLAASYQAYKRCQNRRPDKAFTPHPAISAPMPDATLAASYQACKMCQNRVGRIRRSRRIRQLEHHHHHH
MGHHHHHHSHMNGEAICSALPTIPYHKLADLRYLSRGASGTVSSARHADWRVQVAVKHLHIHTPLLDSERKDVLREAEILHKARFSYILPILGICNEPEFLGIVTEYMPNGSLNELLHRKTEYPDVAWPLRFRILHEIALGVNYLHNMTPPLLHHDLKTQNILLDNEFHVKIADFGLSKWRMMSLSQS
